Measured values reported in patent US20220008464A1.

Target: TGFBR II (UniProt P37173)
Assay: cell-based or functional assay

Sequence of TGFBR II (P37173 23-567): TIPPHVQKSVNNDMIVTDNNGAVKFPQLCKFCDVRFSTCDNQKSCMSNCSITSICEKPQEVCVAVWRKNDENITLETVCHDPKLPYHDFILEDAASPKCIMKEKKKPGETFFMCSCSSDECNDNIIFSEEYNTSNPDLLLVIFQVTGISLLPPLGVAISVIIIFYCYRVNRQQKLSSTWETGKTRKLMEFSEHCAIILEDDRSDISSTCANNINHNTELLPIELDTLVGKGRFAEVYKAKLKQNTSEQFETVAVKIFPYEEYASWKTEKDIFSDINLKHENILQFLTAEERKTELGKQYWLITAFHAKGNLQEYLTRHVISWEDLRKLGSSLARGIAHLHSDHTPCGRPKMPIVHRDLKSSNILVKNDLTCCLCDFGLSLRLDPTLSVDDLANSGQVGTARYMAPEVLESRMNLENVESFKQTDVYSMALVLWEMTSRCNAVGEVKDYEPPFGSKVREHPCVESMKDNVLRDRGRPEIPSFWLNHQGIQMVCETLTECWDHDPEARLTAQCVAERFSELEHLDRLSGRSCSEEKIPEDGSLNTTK

- decrease in release of IL-2 and IFN-γ by P4-CAR-T cells with 5 ng/ml TGFβ1: 50%
Substance: TGFβ1 (from UniProt P01137 279-390) (ligand)
